Positions count from the first letter of the chain named.

Test [1] concerns the target EBV LMP2 peptide on HLA-A11 (human). Kind of test: intracellular IFN-gamma; peptide titration on K562-A11, E:T 1:1, overnight; FIG. 9; full-length, on cells. The note with it: chains Valpha:Vbeta.
The target in test [2] is T1, EBV LMP2 peptide on HLA-A*02:01 (human).
T1 peptide: CLGGLLTMV
Put plainly: intracellular IFN-gamma; peptide titration on APCs, E:T 1:1, overnight; FIG. 6F; full-length, on cells.

Test [3] deals with T2, peptide on HLA-A*02:01 (human).
T2 peptide: SLGGLLTMV
The description is as above.

Test [4] concerns the target T1, EBV LMP2 peptide on HLA-A*02:01. Put plainly: intracellular IFN-gamma; peptide titration on APCs, E:T 1:1, overnight; a different experiment, FIG. 6G; full-length, on cells.
The target in test [5] is T2, peptide on HLA-A*02:01. The description is as above.

B1: L11-3 (protein)
chain 1: GQQVMQIPQYQHVQEGEDFTTYCNSSTTLSNIQWYKQRPGGHPVFLIQLVKSGEVKKQKRLTFQFGEAKKNSSLHITATQTTDVGTYFCADPDGLIFGQGTELSVKP
chain 2: DAGVIQSPRHEVTEMGQEVTLRCKPISGHNSLFWYRQTMMRGLELLIYFNNNVPIDDSGMPEDRFSAKMPNASFSTLKIQPSEPRDSAVYFCASSLGAGAGYGYTFGSGTRLTVV
As to B1, the EC50 of peptide in test [1] turned out to be 0.3 nM.

B2: L11-6 (protein)
chain 1: GIQVEQSPPDLILQEGANSTLRCNFSDSVNNLQWFHQNPWGQLINLFYIPSGTKQNGRLSATTVATERYSLLYISSSQTTDSGVYFCAVDGGNKLVFGAGTILRVKS
chain 2: B1 chain 2 with A100S, Y102W, G103E, Y104Q, T105Y, S108P, V115T
In test [1], B2 displayed an EC50 of peptide of 2 nM.

B3: L208 (TCR, V domains shown)
Valpha: KQEVTQIPAALSVPEGENLVLNCSFTDSAIYNLQWFRQDPGKGLTSLLLIQSSQREQTSGRLNASLDKSSGRSTLYIAASQPGDSATYLCAVLMDSNYQLIWGAGTKLIIKP
Vbeta: DAGITQSPRYKITETGRQVTLMCHQTWSHSYMFWYRQDLGHGLRLIYYSAAADITDKGEVPDGYVVSRSKTENFPLTLESATRSQTSVYFCASSEDGMNTEAFFGQGTRLTVV
B3: the EC50 of peptide in test [2] came out at 0.0392 µg/mL; with peptide on HLA-A*02:01 [3], 0.0183 µg/mL; in test [4], 0.261 µg/mL; with peptide on HLA-A*02:01 [5] it was 0.125 µg/mL.

For the origin of these results see patent US20230227527A1 (published 2023).
